# Laboratory results from paper PMC8991199, “Promiscuity mapping of the S100 protein family using a high-throughput holdup assay” (Scientific Reports, 2022).
# Key:
# Experiment in all cases: fluorescence polarisation; direct FP: S100 protein diluted in 50 nM labeled foldamer, 20 mM HEPES pH 7.5, 150 mM NaCl, 1 mM CaCl2, 0.5 mM TCEP, 0.01% Tween20; quadratic fit (ProFit); detection threshold Kd 1 mM
# [1] = biological target: fIF, fluorescently labelled H14 foldamer IF
# [2] = biological target: fIL, fluorescently labelled H14 foldamer IL
# [3] = biological target: fRF, fluorescently labelled H14 foldamer RF
# [4] = biological target: fRR, fluorescently labelled H14 foldamer RR
# [5] = biological target: fTI, fluorescently labelled H14 foldamer TI
# [6] = biological target: fTM, fluorescently labelled H14 foldamer TM
# [7] = biological target: fTW, fluorescently labelled H14 foldamer TW
# [8] = biological target: fVL, fluorescently labelled H14 foldamer VL
# [9] = biological target: fWL, fluorescently labelled H14 foldamer WL
# [10] = biological target: fWW, fluorescently labelled H14 foldamer WW
# [11] = biological target: fYF, fluorescently labelled H14 foldamer YF
Binder,Kd [1] [µM],Kd [2] [µM],Kd [3] [µM],Kd [4] [µM],Kd [5] [µM],Kd [6] [µM],Kd [7] [µM],Kd [8] [µM],Kd [9] [µM],Kd [10] [µM],Kd [11] [µM]
S100A11 (natural protein) MAKISSPTETERCIESLIAVFQKYAGKDGYNYTLSKTEFLSFMNTELAAFTKNQKDPGVLDRMMKKLDTNSDGQLDFSEFLNLIGGLAMACHDSFLKAVPSQKRT,280,> 1000,1000,> 1000,> 1000,> 1000,570,> 1000,> 1000,> 1000,> 1000
S100A12 (natural protein) MTKLEEHLEGIVNIFHQYSVRKGHFDTLSKGELKQLLTKELANTIKNIKDKAVIDEIFQGLDANQDEQVDFQEFISLVAIALKAAHYHTHKE,590,> 1000,> 1000,> 1000,> 1000,> 1000,> 1000,> 1000,250,> 1000,> 1000
S100A13 (natural protein) MAAEPLTELEESIETVVTTFFTFARQEGRKDSLSVNEFKELVTQQLPHLLKDVGSLDEKMKSLDVNQDSELKFNEYWRLIGELAKEIRKKKDLKIRKK,> 1000,> 1000,> 1000,> 1000,> 1000,> 1000,> 1000,> 1000,> 1000,> 1000,> 1000
S100A14 (natural protein) MGQCRSANAEDAQEFSDVERAIETLIKNFHQYSVEGGKETLTPSELRDLVTQQLPHLMPSNCGLEEKIANLGSCNDSKLEFRSFWELIGEAAKSVKLERPVRGH,> 1000,> 1000,> 1000,> 1000,> 1000,> 1000,> 1000,> 1000,> 1000,> 1000,> 1000
S100A16 (natural protein) MSDCYTELEKAVIVLVENFYKYVSKYSLVKNKISKSSFREMLQKELNHMLSDTGNRKAADKLIQNLDANHDGRISFDEYWTLIGGITGPIAKLIHEQEQQSSS,> 1000,> 1000,> 1000,> 1000,> 1000,> 1000,> 1000,> 1000,300,> 1000,> 1000
S100B (natural protein) MSELEKAMVALIDVFHQYSGREGDKHKLKKSELKELINNELSHFLEEIKEQEVVDKVMETLDNDGDGECDFQEFMAFVAMVTTACHEFFEHE,140,63,230,210,> 1000,> 1000,280,50,11,> 1000,28
S100G (natural protein) MSTKKSPEELKRIFEKYAAKEGDPDQLSKDELKLLIQAEFPSLLKGPNTLDDLFQELDKNGDGEVSFEEFQVLVKKISQ,> 1000,> 1000,> 1000,> 1000,> 1000,> 1000,> 1000,> 1000,> 1000,> 1000,> 1000
S100P (natural protein) MTELETAMGMIIDVFSRYSGSEGSTQTLTKGELKVLMEKELPGFLQSGKDKDAVDKLLKDLDANGDAQVDFSEFIVFVAAITSACHKYFEKAGLK,140,330,190,> 1000,> 1000,> 1000,170,> 1000,75,190,79
S100Z (natural protein) MPTQLEMAMDTMIRIFHRYSGKERKRFKLSKGELKLLLQRELTEFLSCQKETQLVDKIVQDLDANKDNEVDFNEFVVMVAALTVACNDYFVEQLKKKGK,480,> 1000,890,> 1000,> 1000,> 1000,520,> 1000,> 1000,> 1000,> 1000
S100A3 (natural protein) MARPLEQAVAAIVCTFQEYAGRCGDKYKLCQAELKELLQKELATWTPTEFRECDYNKFMSVLDTNKDCEVDFVEYVRSLACLCLYCHEYFKDCPSEPPCSQ,180,> 1000,> 1000,> 1000,> 1000,> 1000,> 1000,> 1000,> 1000,310,> 1000
S100A5 (natural protein) METPLEKALTTMVTTFHKYSGREGSKLTLSRKELKELIKKELCLGEMKESSIDDLMKSLDKNSDQEIDFKEYSVFLTMLCMAYNDFFLEDNK,27,75,46,45,270,200,62,110,14,77,32
S100A8 (natural protein) MLTELEKALNSIIDVYHKYSLIKGNFHAVYRDDLKKLLETECPQYIRKKGADVWFKELDINTDGAVNFQEFLILVIKMGVAAHKKSHEESHKE,750,> 1000,> 1000,> 1000,> 1000,> 1000,770,> 1000,74,> 1000,180
S100A9 (natural protein) MTCKMSQLERNIETIINTFHQYSVKLGHPDTLNQGEFKELVRKDLQNFLKKENKNEKVIEHIMEDLDTNADKQLSFEEFIMLMARLTWASHEKMHEGDEGPGHHHKPGLGEGTP,> 1000,> 1000,> 1000,> 1000,> 1000,> 1000,> 1000,> 1000,> 1000,> 1000,> 1000
